Where a chain is given by its changes, count along the chain named.
How the values were obtained:
[1] = target: T1, ICAM1 on the surface of DU145 cells (human, UniProt P05362 28-532); experiment: flow cytometry, DU145 cells;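 note: purified antibodies in dilution series bound to cells for 1 h at 4 °C, detected with a fluorescent secondary antibody (1 h, 4 °C, dark), read by flow cytometry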
T1 construct: whole, on cells
Description: Harvested cells were centrifuged at 2000 rpm for 5 min and resuspended with 10-15 ml ice-cold culture medium. Cells were counted and then 3×10⁶ cells were resuspended per mL of blocking buffer (PBS plus 2% FBS). 100 μl of the cell suspension was dispensed into each well of a 96-well plate and incubated at room temperature for 10-20 min. […] While incubating, purified antibodies were diluted to the desired dilution with blocking buffer. After a 10-20 minutes incubation, cells were centrifuged for 5 min at 2000 rmp in a refrigerated centrifuge. Blocking buffer was aspirated, and cells were resuspended in 100 μl/well diluted antibodies and incubated for 1 hour at 4° C. The cells were then washed 3 times with PBS plus 2% FBS. After the final wash, the cells were resuspended in 100 μl 1:500 diluted secondary antibody (Invitrogen, Cat #: A10631) and incubated for 1 hour at 4° C. in the dark. The cells were then washed 3 times with 200 μl PBS by centrifuging at 2000 rpm for 5 min. After the last wash, the cells were resuspended in 300 μl cold PBS and analyzed on a FACSVerse™ (BD Biosciences) flow cytometer.

recombinant human ICAM1 [2] = target: T2, recombinant human ICAM1 (human, UniProt P05362 28-480, limits assumed); experiment: SPR (Biacore 8K), antibody captured, antigen injected
Rhesus-ICAM1 [3] = target: T3, Rhesus-ICAM1 (rhesus, UniProt Q5NKV6 28-480, limits assumed); experiment: as above
T3 sequence (looked up): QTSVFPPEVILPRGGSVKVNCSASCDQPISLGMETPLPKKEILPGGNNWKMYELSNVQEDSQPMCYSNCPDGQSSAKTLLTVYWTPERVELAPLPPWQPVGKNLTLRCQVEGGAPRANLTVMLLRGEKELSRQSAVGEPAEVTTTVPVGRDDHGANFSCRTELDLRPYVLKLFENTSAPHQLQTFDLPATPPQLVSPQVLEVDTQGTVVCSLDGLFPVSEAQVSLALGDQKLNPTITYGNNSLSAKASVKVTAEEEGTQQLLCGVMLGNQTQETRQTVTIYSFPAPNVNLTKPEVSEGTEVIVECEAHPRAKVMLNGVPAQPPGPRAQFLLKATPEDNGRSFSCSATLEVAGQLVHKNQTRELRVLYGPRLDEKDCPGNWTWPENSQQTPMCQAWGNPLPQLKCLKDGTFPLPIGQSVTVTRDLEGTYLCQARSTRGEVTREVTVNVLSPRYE

recombinant human ICAM1 [4] = target: T2, recombinant human ICAM1; experiment: ELISA: plate coated with 1 ug/ml recombinant human ICAM1 ECD, serially diluted antibody, OD450
Description: (§1) The plate was coated overnight at 4° C. with 1 μg/ml recombinant CD38 or ICAM1. After washing 3 times, the plate was blocked with 300 μl 1% BSA in PBST at 37° C. for 1 hour. Serially diluted antibodies were added and incubated at 37° C. for 1 hour. The plate was then washed 4 times with PBST and incubated with 1:5000 diluted 2nd antibody (Sigma, Cat #A0293) at 37° C. for 1 hour.

Rhesus-ICAM1 [5] = target: T3, Rhesus-ICAM1; experiment: ELISA: plate coated with 1 ug/ml recombinant rhesus ICAM1 ECD, serially diluted antibody, OD450
Description: as §1

T1 sequence (P05362 28-532): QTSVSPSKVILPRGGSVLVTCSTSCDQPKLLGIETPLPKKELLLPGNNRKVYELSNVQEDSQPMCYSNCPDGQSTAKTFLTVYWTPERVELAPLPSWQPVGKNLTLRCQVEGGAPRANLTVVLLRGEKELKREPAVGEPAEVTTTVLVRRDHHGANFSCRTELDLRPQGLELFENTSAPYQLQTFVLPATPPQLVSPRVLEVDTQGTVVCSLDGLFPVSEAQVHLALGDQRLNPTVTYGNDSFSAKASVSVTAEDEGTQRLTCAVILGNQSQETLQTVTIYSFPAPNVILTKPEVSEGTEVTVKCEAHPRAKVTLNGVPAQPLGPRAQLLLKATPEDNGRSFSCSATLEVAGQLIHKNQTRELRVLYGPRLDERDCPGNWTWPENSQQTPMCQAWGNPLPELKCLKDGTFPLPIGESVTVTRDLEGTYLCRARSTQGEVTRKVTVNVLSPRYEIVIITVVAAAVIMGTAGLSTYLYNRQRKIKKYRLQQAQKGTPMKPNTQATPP
T2 sequence (P05362 28-480 limits assumed): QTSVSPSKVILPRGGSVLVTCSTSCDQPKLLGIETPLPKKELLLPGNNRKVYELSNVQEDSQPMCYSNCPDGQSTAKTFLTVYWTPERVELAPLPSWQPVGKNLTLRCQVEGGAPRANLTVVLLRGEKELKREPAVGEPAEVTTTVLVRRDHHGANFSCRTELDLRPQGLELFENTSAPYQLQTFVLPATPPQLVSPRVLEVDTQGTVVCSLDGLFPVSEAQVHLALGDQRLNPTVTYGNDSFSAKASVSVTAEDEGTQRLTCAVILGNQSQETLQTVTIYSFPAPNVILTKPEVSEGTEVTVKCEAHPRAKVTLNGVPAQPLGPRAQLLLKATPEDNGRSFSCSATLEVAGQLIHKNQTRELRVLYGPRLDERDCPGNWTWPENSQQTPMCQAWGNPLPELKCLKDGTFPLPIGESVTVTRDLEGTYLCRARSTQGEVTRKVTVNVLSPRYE

B1: 5B12 (antibody, human IgG1, kappa, V domains shown)
VH: QSLEESGGRLVTPGTPLTLTCTVSGFSLSSYGMSWVRQAPGKGLEYIGWISFSGSAYYANWAKGRFTISKTSTTVDLKITSPTTEDTATYFCARGGDYGGSTYILNLWGPGTLVTVSS
VL: AFELTQTPSSVEAAVGGTVTIKCQASESIDSYLSWYQQKPGQPPKLLIYAASTLASGVSSRFKGSGSGTEFTLTISDLESADAATYYCQSYSGTITTSGGAFGGGTEVVVKR
notes: Rabbit-human chimeric anti-ICAM1: rabbit VH and VL on human IgG1 and kappa constant regions
[1]
  EC50: 0.113 nM
  Max Binding MFI: 5940 MFI
Recombinant human ICAM1 [2]
  Kd: 2.74 nM
  koff: 0.000584 s⁻¹
  kon: 213000 M⁻¹ s⁻¹
Rhesus-ICAM1 [3]
  Kd: 8.2 nM
  koff: 0.00218 s⁻¹
  kon: 266000 M⁻¹ s⁻¹
Recombinant human ICAM1 [4]
  EC50 (read off the curve): ~0.04 nM
Rhesus-ICAM1 [5]
  EC50 (read off the curve): ~0.04 nM

B2: 10B8 (antibody, human IgG1, kappa, V domains shown)
VH: B1 VH with T15G, P16S
VL: B1 VL with D30N, T96S
notes: as for B1
[1]
  EC50: 0.251 nM
  Max Binding MFI: 6220 MFI
Recombinant human ICAM1 [2]
  Kd: 3.32 nM
  koff: 0.000682 s⁻¹
  kon: 206000 M⁻¹ s⁻¹
Rhesus-ICAM1 [3]
  Kd: 8.27 nM
  koff: 0.00245 s⁻¹
  kon: 296000 M⁻¹ s⁻¹
Recombinant human ICAM1 [4]
  EC50 (read off the curve): ~0.04 nM
Rhesus-ICAM1 [5]
  EC50 (read off the curve): ~0.04 nM

B3: 3D8 (antibody, human IgG1, kappa, V domains shown)
VH: QSLEESGGDLVKPGASLTLTCTASGFSFSSSYWMCWVRQAPGKGLEWIACIDGGSAGYNYYATWAKGRFTISKTSSTTVTLQMTSLTAADRATYFCARGPGSSYNLWGPGTLVTVSS
VL: DIVMTQTPASVEAAVGGTVTIKCQASQSISSYLSWYQQKPGQPPKLLIYRASTLASGVPSRFKGSGSGTEFTLTISDLESADAATYYCQSYVFGSSRSYDNAFGGGTEVVVKR
notes: as for B1
[1]
  EC50: 0.208 nM
  Max Binding MFI: 6430 MFI
Recombinant human ICAM1 [2]
  Kd: 16.8 nM
  koff: 0.00909 s⁻¹
  kon: 540000 M⁻¹ s⁻¹
Rhesus-ICAM1 [3]
  Kd: 17.3 nM
  koff: 0.0348 s⁻¹
  kon: 2.01e+06 M⁻¹ s⁻¹
Recombinant human ICAM1 [4]
  EC50 (read off the curve): ~0.04 nM
Rhesus-ICAM1 [5]
  EC50 (read off the curve): ~0.04 nM

B4: 15D10 (antibody, human IgG1, kappa, V domains shown)
VH: QSVEESGGRLVTPGTPLTLTCTASGFSLNNYYMSWVRQAPGKGLEWIGIISDSDNTYYASWAKGRFTISKTSTTVDLKITSPTTEDTATYFCARDWSLDSSSGYYYYDMDLWGPGTLVTVSA
VL: AYDMTQTPASMEVAVGGTVTIKCQASQNIHSWLAWFQQKPGQPPKRLIYKASTLASGVPSRFKGSGSGTQFTLTISGVQSDDAATYYCQQGYSRSDGEHVFGGGTEVVVKR
notes: as for B1
[1]
  EC50: 0.879 nM
  Max Binding MFI: 5000 MFI
Recombinant human ICAM1 [2]
  Kd: 2.12 nM
  koff: 0.000181 s⁻¹
  kon: 85500 M⁻¹ s⁻¹
Rhesus-ICAM1 [3]
  Kd: 1.79 nM
  koff: 0.000421 s⁻¹
  kon: 236000 M⁻¹ s⁻¹
Recombinant human ICAM1 [4]
  EC50 (read off the curve): ~0.04 nM
Rhesus-ICAM1 [5]
  EC50 (read off the curve): ~0.04 nM

B5: 11G7 (antibody, human IgG1, kappa, V domains shown)
VH: QSVEESGGRLVTPGTPLTLTCTVSGFSLSDYYMSWVRQAPGKGLEWIGIISDSGSTYYASWAKGRFTISKTSSTTVDLKITSPTTEDTATYFCARDWSYDSSSGYYYYDMDLWGPGTLVTVSA
VL: B4 VL with M11V, N28S, H30N, A34S, Q37H, P59S, Q79E, D81A
notes: as for B1
[1]
  EC50: 1.04 nM
  Max Binding MFI: 4820 MFI
Recombinant human ICAM1 [2]
  Kd: 2.65 nM
  koff: 0.000271 s⁻¹
  kon: 103000 M⁻¹ s⁻¹
Rhesus-ICAM1 [3]
  Kd: 4.28 nM
  koff: 0.000624 s⁻¹
  kon: 146000 M⁻¹ s⁻¹
Recombinant human ICAM1 [4]
  EC50 (read off the curve): ~0.04 nM
Rhesus-ICAM1 [5]
  EC50 (read off the curve): ~0.04 nM

B6: 8E5 (antibody, human IgG1, kappa, V domains shown)
VH: QSLEESGGRLVTPGTPLTLTCTVSGFSLSNYAMNWVRQAPGKGLEWIGYISTRGSAYYASWAKGRFTISKTSTTVDLKMTSPTTEDTATYFCARGDLVGGGYIRGSFDPWGPGTLVTVSS
VL: AQVLTQTPSPVSAAVGGTVTINCQSSQSVVSDKLLSWFQQKPGQPPKLLIYGASTLASGVPSRFKGSGSGTQFTLTISDVQSDDAATYYCAGAYSTDSDIRAFGGGTEVVVKR
notes: as for B1
[1]
  EC50: 0.124 nM
  Max Binding MFI: 9190 MFI
Recombinant human ICAM1 [2]
  Kd: 24.4 nM
  koff: 0.00361 s⁻¹
  kon: 148000 M⁻¹ s⁻¹
Rhesus-ICAM1 [3]
  Kd: 7.06 nM
  koff: 0.00189 s⁻¹
  kon: 268000 M⁻¹ s⁻¹
Recombinant human ICAM1 [4]
  EC50 (read off the curve): ~0.04 nM
Rhesus-ICAM1 [5]
  EC50 (read off the curve): ~0.04 nM

B7: 14B3 (antibody, human IgG1, kappa, V domains shown)
VH: QSLEESGGDLVKPGASLTLTCTASGFSSSSGYYICWVRQAPGKGLEWIACIGAGSGAAYYASWAKGRFTMSKTSSTTVTLQMTSLTAADTATYFCARGGFVVGGGYGGYCFNLWGPGTLVTVSS
VL: AQVLTQTASSVSATVGGTVTISCQSSESVDVNNLAWYQQKPGQPPKLLIYSASTLASGVPSRFKGSGSGTQFTLTVSDLESADAATYYCAGGYSGNIFAFGGGTAVVVKR
notes: as for B1
[1]
  EC50: 6.01 nM
  Max Binding MFI: 2940 MFI
Recombinant human ICAM1 [2]
  Kd: 2.85 nM
  koff: 0.00027 s⁻¹
  kon: 94800 M⁻¹ s⁻¹
Rhesus-ICAM1 [3]
  Kd: 3.2 nM
  koff: 0.000596 s⁻¹
  kon: 186000 M⁻¹ s⁻¹
Recombinant human ICAM1 [4]
  EC50 (read off the curve): ~0.04 nM
Rhesus-ICAM1 [5]
  EC50 (read off the curve): ~0.04 nM

B8: 11F2 (antibody, human IgG1, kappa, V domains shown)
VH: QSVEESGGGLVKPGGTLTLTCTVSGFSLSSHAMGWVRQAPGKGLEYIGIIGSSDRTYYASWAKGRFTISKTSTTVDLKITSPTTEDTATYFCVRDPYDSYDDGYRLWGPGTLVTVSS
VL: AYDMTQTPASVEVAVGGTVTIKCQASQSIYRYLSWYQKKPGQRPKFLIYDASKLASGVPSRFEGSGSGTEFTLTISGAQSDDAATYYCQQAYSSGSIDNAFGGGTEVVVKR
notes: as for B1
[1]
  EC50: 1.31 nM
  Max Binding MFI: 4060 MFI
Recombinant human ICAM1 [2]
  Kd: 0.29 nM
  koff: 0.000131 s⁻¹
  kon: 456000 M⁻¹ s⁻¹
Rhesus-ICAM1 [3]
  Kd: 0.25 nM
  koff: 0.000224 s⁻¹
  kon: 914000 M⁻¹ s⁻¹
Recombinant human ICAM1 [4]
  EC50 (read off the curve): ~0.04 nM
Rhesus-ICAM1 [5]
  EC50 (read off the curve): ~0.04 nM

B9: 6G8 (antibody, human IgG1, kappa, V domains shown)
VH: B8 VH with H31Y, D54G, R55S, S60T, D102A, G103A
VL: B8 VL with T5S, R31S, K38Q, F46L, E63T, A78V, G95S, S96N, I97V, A100V
notes: as for B1
[1]
  EC50: 2.23 nM
  Max Binding MFI: 4190 MFI
Recombinant human ICAM1 [2]
  Kd: 1.7 nM
  koff: 0.000533 s⁻¹
  kon: 314000 M⁻¹ s⁻¹
Rhesus-ICAM1 [3]
  Kd: 0.85 nM
  koff: 0.00126 s⁻¹
  kon: 1.47e+06 M⁻¹ s⁻¹
Recombinant human ICAM1 [4]
  EC50 (read off the curve): ~0.04 nM
Rhesus-ICAM1 [5]
  EC50 (read off the curve): ~0.04 nM

B10: 16E4 (antibody, human IgG1, kappa, V domains shown)
VH: QSVEESGGRLVTPGTPLTLTCTVSGFSLSSHAMGWVRQAPGKGLQYIGIIGSSGSTYYASWAKGRFTISKTSTTVDLRLTSPTTEDTATYFCVRDPYDSFGDAYRLWGPGTLVTVSS
VL: B8 VL with R31S, L33C, K38Q, E63K, A78M, G95S, S96N, I97V
notes: as for B1
[1]
  EC50: 1.45 nM
  Max Binding MFI: 3700 MFI
Recombinant human ICAM1 [2]
  Kd: 0.57 nM
  koff: 0.000134 s⁻¹
  kon: 237000 M⁻¹ s⁻¹
Rhesus-ICAM1 [3]
  Kd: 0.54 nM
  koff: 0.000277 s⁻¹
  kon: 517000 M⁻¹ s⁻¹
Recombinant human ICAM1 [4]
  EC50 (read off the curve): ~0.04 nM
Rhesus-ICAM1 [5]
  EC50 (read off the curve): ~0.04 nM

B11: 8B12 (antibody, human IgG1, kappa, V domains shown)
VH: B8 VH with S30T, Y100F
VL: B8 VL with R31S, K38Q, L54V, E63K, G77A, A78V, G95S, S96N, I97V, V108M
notes: as for B1
[1]
  EC50: 1.02 nM
  Max Binding MFI: 3750 MFI
Recombinant human ICAM1 [2]
  Kd: 0.26 nM
  koff: 0.000115 s⁻¹
  kon: 442000 M⁻¹ s⁻¹
Rhesus-ICAM1 [3]
  Kd: 0.88 nM
  koff: 0.000658 s⁻¹
  kon: 746000 M⁻¹ s⁻¹
Recombinant human ICAM1 [4]
  EC50 (read off the curve): ~0.04 nM
Rhesus-ICAM1 [5]
  EC50 (read off the curve): ~0.04 nM

Reference: patent US20220002432A1 (VIRTUOSO BINCO, published 2022)
